According to patent US20060058230A1 (published 2006):
Non-standard residues stand in square brackets, D forms with d. No end group written: not given here. 2Nal = N[C@@H](Cc1ccc2ccccc2c1)C(=O)O; Nle = CCCC[C@H](N)C(=O)O; βAla = NCCC(=O)O

Tests used:
[1] = molecular target: T1, recombinant hPTH1-receptor (human, UniProt Q03431 27-593); assay: cell-based or functional assay
T1 sequence (looked up): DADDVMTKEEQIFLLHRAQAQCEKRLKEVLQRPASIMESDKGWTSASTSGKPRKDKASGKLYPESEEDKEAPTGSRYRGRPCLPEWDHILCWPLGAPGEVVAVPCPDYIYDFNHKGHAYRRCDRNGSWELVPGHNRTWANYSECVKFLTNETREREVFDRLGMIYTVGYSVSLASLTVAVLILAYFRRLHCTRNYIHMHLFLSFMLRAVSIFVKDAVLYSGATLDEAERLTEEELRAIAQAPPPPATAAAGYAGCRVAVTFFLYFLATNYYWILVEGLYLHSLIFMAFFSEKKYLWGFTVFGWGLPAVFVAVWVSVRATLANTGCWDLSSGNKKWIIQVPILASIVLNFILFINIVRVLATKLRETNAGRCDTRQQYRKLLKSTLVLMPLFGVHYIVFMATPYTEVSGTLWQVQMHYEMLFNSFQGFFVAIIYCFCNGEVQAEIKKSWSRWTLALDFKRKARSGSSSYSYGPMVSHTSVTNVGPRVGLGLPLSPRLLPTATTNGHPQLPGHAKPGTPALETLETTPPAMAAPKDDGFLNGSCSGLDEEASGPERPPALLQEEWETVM

[2] = molecular target: T1, recombinant hPTH1-receptor; assay: competition with 125I-[Nle8,18,Nal23,Tyr34]bPTH(1-34)NH2 on HEK293/C21 cells with hPTH1-receptor
Description: Human embryonic kidney (HEK293) cells, stably transfected with recombinant hPTH1-receptor (HEK293/C21 cell line, ˜400,000 receptors/cell) (Pines, M., Adams, A. E., Stueckle, S., Bessalle, R., Rashti-Behar, V., Chorev, M., Rosenblatt, M., and Suva, L. J. Endocrinology 1994, 135, 1713-1716), were maintained in D-MEM medium supplemented with 10% fetal bovine serum and […] glutamine at 37° C. in a humidified atmosphere of 95% air/5% CO₂. The medium was changed every 3-4 days, and the cells were subcultured every week. Ligand stimulated adenylyl cyclase activity and radioreceptor competition binding assays were performed on confluent cultures, 1-3 days after a change of medium.
[Nle^{8,18},Nal²³,Tyr³⁴]bPTH(1-34)-NH₂ was radioiodinated and the crude material was purified as previously described (Roubini, E., Duong, L. T., Gibbons, S. W., Leu, C. T., Caulfield, M. P., Chorev, M., and Rosenblatt, M. Biochemistry 1992, 31, 4026-4033). Briefly, 67 μg of peptide in 50 μL phosphate buffer, pH 7.4, in a borosilicate tube, coated with 10 μg Iodogen® (Pierce Chemical), were treated at room temperature with 2 mCi [¹²⁵I]Na for 12 min, followed by dilution with 200 μL of 0.1% TFA in water.
Cells were plated in 24-well tissue culture dishes (Corning Glass Works, Corning, N.Y.) and grown to subconfluency. […] After incubation, cells were washed twice with PBS and lysed with 0.1 M NaOH. Radioactivity in the lysate was measured in a γ-counter (Analytic GammaTrac™ 1193).

- EC50 (half maximal stimulation of adenylate cyclase) [1]: 3.9 nM
- IC50 [2]: 285 nM
B1: [Nle^8,β-Ala^18, Nal^23, Tyr^34]bPTH(1-34)NH2 (peptide)
peptide: AVSEIQF[Nle]HNLGKHLSS[βAla]ERVE[2Nal]LRKKLQDVHNY-NH2
modifications: N-terminus assumed
SMILES: CCCC[C@H](NC(=O)[C@H](Cc1ccccc1)NC(=O)[C@H](CCC(N)=O)NC(=O)[C@@H](NC(=O)[C@H](CCC(=O)O)NC(=O)[C@H](CO)NC(=O)[C@@H](NC(=O)[C@H](C)N)C(C)C)[C@@H](C)CC)C(=O)N[C@@H](Cc1c[nH]cn1)C(=O)N[C@@H](CC(N)=O)C(=O)N[C@@H](CC(C)C)C(=O)NCC(=O)N[C@@H](CCCCN)C(=O)N[C@@H](Cc1c[nH]cn1)C(=O)N[C@@H](CC(C)C)C(=O)N[C@@H](CO)C(=O)N[C@@H](CO)C(=O)NCCC(=O)N[C@@H](CCC(=O)O)C(=O)N[C@@H](CCCNC(=N)N)C(=O)N[C@H](C(=O)N[C@@H](CCC(=O)O)C(=O)N[C@@H](Cc1ccc2ccccc2c1)C(=O)N[C@@H](CC(C)C)C(=O)N[C@@H](CCCNC(=N)N)C(=O)N[C@@H](CCCCN)C(=O)N[C@@H](CCCCN)C(=O)N[C@@H](CC(C)C)C(=O)N[C@@H](CCC(N)=O)C(=O)N[C@@H](CC(=O)O)C(=O)N[C@H](C(=O)N[C@@H](Cc1c[nH]cn1)C(=O)N[C@@H](CC(N)=O)C(=O)N[C@@H](Cc1ccc(O)cc1)C(N)=O)C(C)C)C(C)C
notes: Synthetic analog of bovine PTH(1-34), carboxamide at the C-terminus
